Results from IntAct's records for PubMed 35512704.

B1: Mothers against decapentaplegic homolog 4 (Homo sapiens), Q13485 (parent)
chain: MDNMSITNTPTSNDACLSIVHSLMCHRQGGESETFAKRAIESLVKKLKEKKDELDSLITAITTNGAHPSKCVTIQRTLDGRLQVAGRKGFPHVIYARLWRWPDLHKNELKHVKYCQYAFDLKCDSVCVNPYHYERVVSPGIDLSGLTLQSNAPSSMMVKDEYVHDFEGQPSLSTEGHSIQTIQHPPSNRASTETYSTPALLAPSESNATSTANFPNIPVASTSQPASILGGSHSEGLLQIASGPQPGQQQNGFTGQPATYHHNSTTTWTGSRTAPYTPNLPHHQNGHLQHHPPMPPHPGHYWPVHNELAFQPPISNHPAPEYWCSIAYFEMDVQVGETFKVPSSCPIVTVDGYVDPSGGDRFCLGQLSNVHRTEAIERARLHIGKGVQLECKGEGDVWVRCLSDHAVFVQSYYLDREAGRAPGDAVHKIYPSAYIKVFDLRQCHRQMQQQAATAQAAAAAQAAAVAGNIPGPGSVGGIAPAISLSAAAGIGVDDLRRLCILRMSFVKGWGPDYPRQSIKETPCWIEIHLHRALQLLDEVLHTMPIADPQPLD
partner: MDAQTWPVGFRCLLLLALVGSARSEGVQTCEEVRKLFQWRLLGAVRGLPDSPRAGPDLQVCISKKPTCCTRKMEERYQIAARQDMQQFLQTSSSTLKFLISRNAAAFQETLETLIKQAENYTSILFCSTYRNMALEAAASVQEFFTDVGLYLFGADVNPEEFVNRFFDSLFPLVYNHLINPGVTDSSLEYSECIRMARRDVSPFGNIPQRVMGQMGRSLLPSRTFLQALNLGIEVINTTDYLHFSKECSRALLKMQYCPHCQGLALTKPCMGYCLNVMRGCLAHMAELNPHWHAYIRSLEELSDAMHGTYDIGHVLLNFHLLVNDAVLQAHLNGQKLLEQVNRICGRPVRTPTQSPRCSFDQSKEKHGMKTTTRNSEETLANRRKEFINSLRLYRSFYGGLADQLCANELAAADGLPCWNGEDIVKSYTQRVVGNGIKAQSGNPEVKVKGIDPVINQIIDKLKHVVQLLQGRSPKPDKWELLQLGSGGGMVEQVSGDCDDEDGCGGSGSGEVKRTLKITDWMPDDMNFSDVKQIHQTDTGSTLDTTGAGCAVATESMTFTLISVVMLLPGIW
B2: Mothers against decapentaplegic homolog 4 (Homo sapiens), Q13485 (parent)
chain: B1 chain
partner: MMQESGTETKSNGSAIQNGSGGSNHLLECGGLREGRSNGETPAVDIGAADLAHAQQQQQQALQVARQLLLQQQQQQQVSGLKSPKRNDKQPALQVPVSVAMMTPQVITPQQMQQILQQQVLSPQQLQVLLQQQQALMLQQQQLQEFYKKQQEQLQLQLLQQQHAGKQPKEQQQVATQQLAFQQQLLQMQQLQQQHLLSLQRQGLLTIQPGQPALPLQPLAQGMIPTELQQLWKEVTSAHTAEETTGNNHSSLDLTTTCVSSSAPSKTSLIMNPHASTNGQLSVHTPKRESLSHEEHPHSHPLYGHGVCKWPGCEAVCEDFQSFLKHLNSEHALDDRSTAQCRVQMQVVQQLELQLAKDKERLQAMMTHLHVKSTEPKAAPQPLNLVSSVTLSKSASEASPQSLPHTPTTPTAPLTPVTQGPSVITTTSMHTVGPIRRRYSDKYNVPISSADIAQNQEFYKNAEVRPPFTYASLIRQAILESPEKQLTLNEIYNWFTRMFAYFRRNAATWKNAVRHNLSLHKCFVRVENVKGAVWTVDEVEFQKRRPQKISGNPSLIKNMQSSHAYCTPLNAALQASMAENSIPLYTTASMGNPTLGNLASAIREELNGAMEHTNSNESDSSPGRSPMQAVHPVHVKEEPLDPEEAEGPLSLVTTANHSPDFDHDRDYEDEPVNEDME
B3: Mothers against decapentaplegic homolog 4 (Homo sapiens), Q13485 (parent)
chain: B1 chain
partner: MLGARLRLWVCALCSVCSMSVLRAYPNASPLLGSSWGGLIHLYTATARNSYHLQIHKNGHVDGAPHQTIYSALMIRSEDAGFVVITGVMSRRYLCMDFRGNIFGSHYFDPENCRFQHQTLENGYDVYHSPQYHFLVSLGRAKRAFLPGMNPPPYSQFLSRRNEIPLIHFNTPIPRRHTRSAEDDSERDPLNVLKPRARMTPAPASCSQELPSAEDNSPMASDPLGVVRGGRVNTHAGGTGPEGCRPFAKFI
B4: Mothers against decapentaplegic homolog 4 (Homo sapiens), Q13485 (parent)
chain: B1 chain
partner: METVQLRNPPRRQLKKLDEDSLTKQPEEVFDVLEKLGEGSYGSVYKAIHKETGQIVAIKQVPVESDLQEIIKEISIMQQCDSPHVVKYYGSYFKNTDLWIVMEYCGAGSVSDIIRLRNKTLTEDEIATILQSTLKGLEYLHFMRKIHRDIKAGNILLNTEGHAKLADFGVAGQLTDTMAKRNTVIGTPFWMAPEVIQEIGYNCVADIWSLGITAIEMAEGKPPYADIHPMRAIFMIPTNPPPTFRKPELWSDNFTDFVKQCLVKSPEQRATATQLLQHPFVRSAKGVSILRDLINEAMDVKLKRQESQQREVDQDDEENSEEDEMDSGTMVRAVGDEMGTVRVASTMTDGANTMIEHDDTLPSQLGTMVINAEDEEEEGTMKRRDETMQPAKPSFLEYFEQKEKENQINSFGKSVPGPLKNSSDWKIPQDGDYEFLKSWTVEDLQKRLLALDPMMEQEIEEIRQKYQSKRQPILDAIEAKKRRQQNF
B5: Mothers against decapentaplegic homolog 4 (Homo sapiens), Q13485 (parent)
chain: B1 chain
partner: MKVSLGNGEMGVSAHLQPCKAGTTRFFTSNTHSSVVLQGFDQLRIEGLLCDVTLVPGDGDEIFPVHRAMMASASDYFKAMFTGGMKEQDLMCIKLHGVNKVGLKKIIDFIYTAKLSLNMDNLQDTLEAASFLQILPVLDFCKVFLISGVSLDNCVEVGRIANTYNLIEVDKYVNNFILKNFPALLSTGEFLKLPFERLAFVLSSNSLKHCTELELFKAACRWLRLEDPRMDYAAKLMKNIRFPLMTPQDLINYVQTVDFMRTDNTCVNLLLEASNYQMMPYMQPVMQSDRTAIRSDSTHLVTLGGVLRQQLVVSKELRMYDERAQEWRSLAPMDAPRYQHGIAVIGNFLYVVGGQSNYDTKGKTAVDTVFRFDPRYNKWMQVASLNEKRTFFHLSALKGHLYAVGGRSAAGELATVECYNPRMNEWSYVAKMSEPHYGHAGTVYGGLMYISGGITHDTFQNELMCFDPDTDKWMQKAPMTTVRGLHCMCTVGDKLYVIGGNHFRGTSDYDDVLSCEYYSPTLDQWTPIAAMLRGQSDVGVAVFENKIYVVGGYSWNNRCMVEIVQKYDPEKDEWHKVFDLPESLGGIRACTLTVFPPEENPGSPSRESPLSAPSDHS
B6: Mothers against decapentaplegic homolog 4 (Homo sapiens), Q13485 (parent)
chain: B1 chain
partner: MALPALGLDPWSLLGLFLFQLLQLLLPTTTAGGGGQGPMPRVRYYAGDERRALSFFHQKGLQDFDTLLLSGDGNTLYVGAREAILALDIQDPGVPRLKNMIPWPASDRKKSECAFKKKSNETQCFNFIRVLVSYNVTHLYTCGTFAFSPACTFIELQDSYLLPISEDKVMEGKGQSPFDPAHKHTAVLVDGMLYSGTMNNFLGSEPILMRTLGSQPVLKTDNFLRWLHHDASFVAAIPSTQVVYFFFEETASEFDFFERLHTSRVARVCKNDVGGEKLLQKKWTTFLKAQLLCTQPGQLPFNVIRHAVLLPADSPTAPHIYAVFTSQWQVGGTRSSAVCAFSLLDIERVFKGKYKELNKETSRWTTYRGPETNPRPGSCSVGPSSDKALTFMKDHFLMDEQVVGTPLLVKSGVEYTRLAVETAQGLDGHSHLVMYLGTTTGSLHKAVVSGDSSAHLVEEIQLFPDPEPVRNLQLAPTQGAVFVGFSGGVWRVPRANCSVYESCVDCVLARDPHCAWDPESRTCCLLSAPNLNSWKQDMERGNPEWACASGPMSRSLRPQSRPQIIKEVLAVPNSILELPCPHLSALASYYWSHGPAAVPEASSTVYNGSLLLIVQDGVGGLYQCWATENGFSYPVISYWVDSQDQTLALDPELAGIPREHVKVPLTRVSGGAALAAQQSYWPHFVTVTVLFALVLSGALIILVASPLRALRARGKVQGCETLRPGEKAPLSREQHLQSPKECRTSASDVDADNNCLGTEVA
B7: Mothers against decapentaplegic homolog 4 (Homo sapiens), Q13485 (parent)
chain: B1 chain
partner: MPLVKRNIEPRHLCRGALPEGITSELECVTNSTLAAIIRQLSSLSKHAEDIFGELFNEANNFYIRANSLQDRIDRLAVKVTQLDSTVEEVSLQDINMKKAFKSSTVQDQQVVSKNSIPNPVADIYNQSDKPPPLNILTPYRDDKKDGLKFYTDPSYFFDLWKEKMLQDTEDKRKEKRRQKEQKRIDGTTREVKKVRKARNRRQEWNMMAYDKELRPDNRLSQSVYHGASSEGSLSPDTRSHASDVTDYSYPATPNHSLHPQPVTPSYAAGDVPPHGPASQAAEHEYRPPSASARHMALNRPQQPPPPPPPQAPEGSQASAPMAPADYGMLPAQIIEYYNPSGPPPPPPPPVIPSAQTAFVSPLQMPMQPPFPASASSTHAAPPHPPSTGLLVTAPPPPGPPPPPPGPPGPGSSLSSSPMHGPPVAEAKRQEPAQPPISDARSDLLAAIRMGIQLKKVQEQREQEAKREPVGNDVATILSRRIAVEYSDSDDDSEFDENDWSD
B8: Mothers against decapentaplegic homolog 4 (Homo sapiens), Q13485 (parent)
chain: B1 chain
partner: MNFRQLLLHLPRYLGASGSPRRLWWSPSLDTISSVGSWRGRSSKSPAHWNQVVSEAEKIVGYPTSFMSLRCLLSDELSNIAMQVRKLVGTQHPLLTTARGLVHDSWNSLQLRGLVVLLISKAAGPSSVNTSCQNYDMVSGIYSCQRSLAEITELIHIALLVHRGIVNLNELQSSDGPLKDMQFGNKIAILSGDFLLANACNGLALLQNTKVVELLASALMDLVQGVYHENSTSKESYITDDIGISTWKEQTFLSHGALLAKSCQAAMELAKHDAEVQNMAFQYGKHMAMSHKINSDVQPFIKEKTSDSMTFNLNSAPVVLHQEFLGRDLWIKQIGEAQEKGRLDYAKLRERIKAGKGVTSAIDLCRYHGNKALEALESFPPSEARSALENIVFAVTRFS

Variants of: B1
Conditions: with gpc5_human GPC5, P78333

Variant	effect of a mutation on the interaction
G386D	with no effect

Variants of: B1
Conditions: with gpc5_human GPC5, P78333
Remark: another data set of the same source

Variant	effect of a mutation on the interaction
G386D	increasing interaction strength

Variants of: B1
Conditions: with gpc5_human GPC5, P78333
Remark: another data set of the same source

Variant	effect of a mutation on the interaction
R361H	with no effect

Variants of: B1
Conditions: with gpc5_human GPC5, P78333
Remark: another data set of the same source

Variant	effect of a mutation on the interaction
R361C	with no effect

Variants of: B2
Conditions: with foxp1_human FOXP1, Q9H334

Variant	effect of a mutation on the interaction
G386D	with no effect

Variants of: B3
Conditions: with fgf23_human FGF23, Q9GZV9

Variant	effect of a mutation on the interaction
G386D	with no effect

Variants of: B3
Conditions: with fgf23_human FGF23, Q9GZV9
Remark: another data set of the same source

Variant	effect of a mutation on the interaction
G386D	increasing interaction strength

Variants of: B4
Conditions: with stk4_human STK4, Q13043

Variant	effect of a mutation on the interaction
R361H	with no effect

Variants of: B4
Conditions: with stk4_human STK4, Q13043
Remark: another data set of the same source

Variant	effect of a mutation on the interaction
R361C	with no effect

Variants of: B4
Conditions: with stk4_human STK4, Q13043
Remark: another data set of the same source

Variant	effect of a mutation on the interaction
G386D	with no effect

Variants of: B4
Conditions: with stk4_human STK4, Q13043
Remark: another data set of the same source

Variant	effect of a mutation on the interaction
D351H	with no effect

Variants of: B5
Conditions: with klhl9_human KLHL9, Q9P2J3

Variant	effect of a mutation on the interaction
G386D	with no effect

Variants of: B5
Conditions: with klhl9_human KLHL9, Q9P2J3
Remark: another data set of the same source

Variant	effect of a mutation on the interaction
G386D	increasing interaction strength

Variants of: B6
Conditions: with sem4a_human SEMA4A

Variant	effect of a mutation on the interaction
G386D	with no effect

Variants of: B6
Conditions: with sem4a_human SEMA4A
Remark: another data set of the same source

Variant	effect of a mutation on the interaction
D351H	with no effect

Variants of: B6
Conditions: with sem4a_human SEMA4A
Remark: another data set of the same source

Variant	effect of a mutation on the interaction
R361C	with no effect

Variants of: B6
Conditions: with sem4a_human SEMA4A
Remark: another data set of the same source

Variant	effect of a mutation on the interaction
R361H	with no effect

Variants of: B7
Conditions: with wasf3_human WASF3, Q9UPY6

Variant	effect of a mutation on the interaction
G386D	with no effect

Variants of: B7
Conditions: with wasf3_human WASF3, Q9UPY6
Remark: another data set of the same source

Variant	effect of a mutation on the interaction
G386D	increasing interaction strength

Variants of: B7
Conditions: with wasf3_human WASF3, Q9UPY6
Remark: another data set of the same source

Variant	effect of a mutation on the interaction
R361H	with no effect

Variants of: B7
Conditions: with wasf3_human WASF3, Q9UPY6
Remark: another data set of the same source

Variant	effect of a mutation on the interaction
R361C	with no effect

Variants of: B7
Conditions: with wasf3_human WASF3, Q9UPY6
Remark: another data set of the same source

Variant	effect of a mutation on the interaction
D351H	with no effect

Variants of: B8
Conditions: with dlp1_human PDSS2, Q86YH6

Variant	effect of a mutation on the interaction
R361H	with no effect
